B1: PLK2 (parent)
chain: MELLRTITYQPAASTKMCEQALGK

Variants of: B1
Test: protein stability index of a GFP-peptide fusion (GPS, HEK-293T) (PSI 1-6); higher = more stable
Conditions: c terminus: a fixed tail appended
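Further: lentivirally expressed fusions sorted by FACS into six bins by GFP to DsRed ratio, PSI derived from sequencing read proportions per bin multiplied by bin number.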

Variant	protein stability index
MELLRTDTYQPAASTKMCEQALGK [I7D]	4.13
MELLRTWTYQPAASTKMCEQALGK [I7W]	2.27
MELLRTHTYQPAASTKMCEQALGK [I7H]	2.8
MELLRTATYQPAASTKMCEQALGK [I7A]	2.34
MELLRTETYQPAASTKMCEQALGK [I7E]	2.89
MELLRTPTYQPAASTKMCEQALGK [I7P]	2.12
MELLRTCTYQPAASTKMCEQALGK [I7C]	2.1
MELLRTQTYQPAASTKMCEQALGK [I7Q]	2.79
MELLRTFTYQPAASTKMCEQALGK [I7F]	1.94
MELLRTVTYQPAASTKMCEQALGK [I7V]	1.97
MELLRTKTYQPAASTKMCEQALGK [I7K]	3.24
MELLRTGTYQPAASTKMCEQALGK [I7G]	3.72
MELLRTTTYQPAASTKMCEQALGK [I7T]	1.97
MELLRTMTYQPAASTKMCEQALGK [I7M]	2.85
MELLRTSTYQPAASTKMCEQALGK [I7S]	2.54
MELLRTNTYQPAASTKMCEQALGK [I7N]	3.19
MELLRTLTYQPAASTKMCEQALGK [I7L]	2.03
MELLRTRTYQPAASTKMCEQALGK [I7R]	3.09
MELLRTYTYQPAASTKMCEQALGK [I7Y]	2.6
MELLRTITYQPAAKTKMCEQALGK [S14K]	2.24
MELLRTITYQPAAHTKMCEQALGK [S14H]	3.11
MELLRTITYQPAARTKMCEQALGK [S14R]	2.05
MELLRTITYQPAAITKMCEQALGK [S14I]	1.61
MELLRTITYQPAAMTKMCEQALGK [S14M]	2.33

Variant	protein stability index
MELLRTITYQPAANTKMCEQALGK [S14N]	3.48
MELLRTITYQPAAWTKMCEQALGK [S14W]	3.03
MELLRTITYQPAALTKMCEQALGK [S14L]	1.64
MELLRTITYQPAAGTKMCEQALGK [S14G]	1.9
MELLRTITYQPAAQTKMCEQALGK [S14Q]	2.5
MELLRTITYQPAADTKMCEQALGK [S14D]	1.68
MELLRTITYQPAAYTKMCEQALGK [S14Y]	3.88
MELLRTITYQPAACTKMCEQALGK [S14C]	2.5
MELLRTITYQPAAVTKMCEQALGK [S14V]	2.44
MELLRTITYQPAATTKMCEQALGK [S14T]	2.5
MELLRTITYQPAAATKMCEQALGK [S14A]	3.14
MELLRTITYQPAAFTKMCEQALGK [S14F]	2.49
MELLRTITYQPAAETKMCEQALGK [S14E]	2.3
MELLRTITYQPAAPTKMCEQALGK [S14P]	1.5
MELLRTITYQPVASTKMCEQALGK [A12V]	2.4
MELLRTITYQPQASTKMCEQALGK [A12Q]	2.03
MELLRTITYQPWASTKMCEQALGK [A12W]	1.79
MELLRTITYQPTASTKMCEQALGK [A12T]	2.81
MELLRTITYQPYASTKMCEQALGK [A12Y]	2.21
MELLRTITYQPRASTKMCEQALGK [A12R]	2.34
MELLRTITYQPCASTKMCEQALGK [A12C]	2.82
MELLRTITYQPMASTKMCEQALGK [A12M]	1.47
MELLRTITYQPSASTKMCEQALGK [A12S]	1.56
MELLRTITYQPEASTKMCEQALGK [A12E]	2.58

Variant	protein stability index
MELLRTITYQPHASTKMCEQALGK [A12H]	2.41
MELLRTITYQPNASTKMCEQALGK [A12N]	2.8
MELLRTITYQPPASTKMCEQALGK [A12P]	2.18
MELLRTITYQPLASTKMCEQALGK [A12L]	2.57
MELLRTITYQPFASTKMCEQALGK [A12F]	2.97
MELLRTITYQPGASTKMCEQALGK [A12G]	2.32
MELLRTITYQPIASTKMCEQALGK [A12I]	2.35
MELLRTITYQPDASTKMCEQALGK [A12D]	1.82
MELLRTITYQPKASTKMCEQALGK [A12K]	2.03
MELLRTINYQPAASTKMCEQALGK [T8N]	2.68
MELLRTIQYQPAASTKMCEQALGK [T8Q]	1.94
MELLRTIYYQPAASTKMCEQALGK [T8Y]	2.93
MELLRTILYQPAASTKMCEQALGK [T8L]	2.91
MELLRTIVYQPAASTKMCEQALGK [T8V]	2.49
MELLRTIMYQPAASTKMCEQALGK [T8M]	1.96
MELLRTIGYQPAASTKMCEQALGK [T8G]	2.44
MELLRTIIYQPAASTKMCEQALGK [T8I]	3.71
MELLRTIFYQPAASTKMCEQALGK [T8F]	2.17
MELLRTICYQPAASTKMCEQALGK [T8C]	2.32
MELLRTISYQPAASTKMCEQALGK [T8S]	2.21
MELLRTIDYQPAASTKMCEQALGK [T8D]	2.01
MELLRTIWYQPAASTKMCEQALGK [T8W]	2.55
MELLRTIAYQPAASTKMCEQALGK [T8A]	2.94
MELLRTIEYQPAASTKMCEQALGK [T8E]	1.78

Variant	protein stability index
MELLRTIRYQPAASTKMCEQALGK [T8R]	2.5
MELLRTIPYQPAASTKMCEQALGK [T8P]	1.97
MELLRTIHYQPAASTKMCEQALGK [T8H]	2.03
MELLRTIKYQPAASTKMCEQALGK [T8K]	2.25
MELLRTITYQHAASTKMCEQALGK [P11H]	2.39
MELLRTITYQYAASTKMCEQALGK [P11Y]	2.69
MELLRTITYQLAASTKMCEQALGK [P11L]	4.39
MELLRTITYQFAASTKMCEQALGK [P11F]	2.52
MELLRTITYQSAASTKMCEQALGK [P11S]	3.09
MELLRTITYQDAASTKMCEQALGK [P11D]	1.6
MELLRTITYQRAASTKMCEQALGK [P11R]	2.16
MELLRTITYQEAASTKMCEQALGK [P11E]	1.91
MELLRTITYQIAASTKMCEQALGK [P11I]	2.82
MELLRTITYQVAASTKMCEQALGK [P11V]	3.59
MELLRTITYQAAASTKMCEQALGK [P11A]	2.12
MELLRTITYQGAASTKMCEQALGK [P11G]	2.1
MELLRTITYQQAASTKMCEQALGK [P11Q]	2.65
MELLRTITYQMAASTKMCEQALGK [P11M]	2.15
MELLRTITYQNAASTKMCEQALGK [P11N]	1.82
MELLRTITYQKAASTKMCEQALGK [P11K]	1.93
MELLRTITYQTAASTKMCEQALGK [P11T]	2.72
MELLRTITYQPAASCKMCEQALGK [T15C]	2.07

From the supplement of paper PMC10567573
